# In patent publication US8673307:
# Assays:
# [1] = target: YU2-gp140 trimer (artificially trimerized gp140 protein) (HIV-1 (YU2)) (UniProt P35961); assay: SPR (Biacore T100), antibody immobilized on CM5 chip, gp140 trimer injected, 1:1 model
# [2] = target: YU2-gp120 (HIV-1 (YU2)) (UniProt P35961); assay: competition ELISA on gp120; unlabeled b12 against biotin labeled b12 (self-inhibition)
substance,measurement,setting,value
b12 (antibody),Kd,[1],12 nM
same,IC50,[2],5 µg/mL
